{
  "source": "the DeepSol protein solubility set",
  "data": [
    {"test": "soluble on expression in E. coli; label from the status in PepcDB or PDB records", "values": [
      {"sequence": "MGTRSKRSERCARCRLHIHRCVCPAMPRYSLATRVVLVMHHREYPKTTATGPLALEILPNSELRIHGEPGRSLNLSDLDTPARRILLLYPGDDVPVLDRELLERDGRPVTLVVPDGTWRQASRMGRRLPGLARAEMVRLPPGPPTEWGVRRENHPQGLATFEAIARALGIIESPDVQSGMEHLFRLMVRQTLGARGCAVDRDLEHHHHHH", "soluble on expression in E. coli": "soluble"},
      {"sequence": "MGSDKIHHHHHHESSKSGYQTTGENNSSDYQGIIEDGEYKTSKSRGVGISQNSDNLLNLKSFEAGLTTISKDHFSTKSYIFQEGQYLNKATIQDWLGRKSSSNPEGLNPSDNGKKEANKRNPIYVQQIEEQDYMKQNNGKLELAGMTIGIGMNQKDYYQKEQYGATYSTTISKEKRIEEGKIAAKKVLARVRQKVGNNVPIVIAMFAQAPNDSLVGGYFYSYTVSKSGTDIGSWTETNIKSYVLPATEDNKLPNDNDSTSFDNFQKEVKNFFPNISNVTGQGQYKDKTLQGLHITITTQFYSETEITSFTQYVAQAAKSYLPSGIPVDIKINGSDGETQSFVSTTGGNGGYYTHVFGSY", "soluble on expression in E. coli": "not soluble"},
      {"sequence": "MSLAGHQAMHYSRILPNIWLGSCPRQVEHVTIKLKHELGITAVMNFQTEWDIVQNSSGCNRYPEPMTPDTMIKLYREEGLAYIWMPTPDMSTEGRVQMLPQAVCLLHALLEKGHIVYVHCNAGVGRSTAAVCGWLQYVMGWNLRKVQYFLMAKRPAVYIDEEALARAQEDFFQKFGKVRSEGHHHHHH", "soluble on expression in E. coli": "soluble"},
      {"sequence": "RCIKLYRARKGNAAVKRHMRDTLSLNDAVEKVRAVDAPLSKLAQEALQSYRNYRRNEASELAQALPLNEYLVIQIRNSMAQIMRRFD", "soluble on expression in E. coli": "not soluble"},
      {"sequence": "SRLKLFSILSMMLLRPKDTVDSQGQFRGYLDMVINDILAPNLQWHAGRTAAAIRTAAISCLWALISSDILSAKQVQEAQETLMPQVLATLEDDSQTTRLMSCRIINMFLKNSGDTMEPEKFLKVYPELLKRLDDVSNDVRMAAASALLTWLKCIESLDGKSAYQSSVQFLYRELLVHLDDPESAIQDTVLEVLKEGSVLFPDVLVRETEAVVHKHRSATYCEQLLQHMQTMAAAR", "soluble on expression in E. coli": "soluble"},
      {"sequence": "MGSDKIHHHHHHMRVDHSTQPVAVLQEPSIVLVIQGVKRAYIGKDIFKFQQGQCLFISIAIPFDCDTLVEREPMLAIAIKFEPQMMAELATKMDKEHRPLIEDFDNKEIKLSCGLNIIEMNSVISDVALRLLNLLRSKQDTAILGEQVKRELIYRVLQAGGSDFIQNLSAIMSRSGVIYTICEIIQRDYYRNLTVQELAKQAGMSVSLFHQAFKKVTNYSPLQYIKITRLHKARDLILNNQMGVAEAAYEVGYVSASQFSREFKRLFGVPPKLSTN", "soluble on expression in E. coli": "not soluble"},
      {"sequence": "MIKQVIQQLRVPDAGIENLQERRYWLQCERAYTYQPIYQTDGRLMAVELLTVVTHPDNPSRRIAPDRYFAELAVRHRIDVVKEQLHQLEQKADFFTRHHLLASVNVDGPTLIAMRRQPDILAAMERLPWLRFELVEHIRLPKDSSFASMCEFGPLWLDDFGTGMANFSALSEVRYDYIKVARELFVMLRQSPEGRNLFTLLLQLMNRYCRGVIVEGVETLEEWRDVQRSPAFAAQGYFLSRPVPLISLEEVILTL", "soluble on expression in E. coli": "not soluble"},
      {"sequence": "MGSDKIHHHHHHMLIRLGYEIAIECAEATPVISLLEIHKDRQADIKRQTRVLTSPSVPTKLYHDLHGNGCRRFTAPAGTFRILYDAVIEDSGETDEVNTLAREVPVAELPDEVLFYLLGSRYCETDHLSSLAWQLFGHLPSGWARVQAIVDYVHNRLSFGYGYARSTRTAAQAHEERVGVCRDFAHLAITLCRCMNIPARYVNGYLGDIGVPIDPAPMDFSAWMEVFLDGKWYTFDPRHNQPRTGRIVIARGRDATDVPLLHSFGPHRLCLFKVWTYEQEGRSFNPPHRGIDRTVSAQMLA", "soluble on expression in E. coli": "not soluble"},
      {"sequence": "QPLPSAALRRCPPPARVGGRWVSAEKVNEGGSGGGGSQRLTRRARSTARVPAPGTMDAPRASAAKPPTGRKMKARAPPPPGKAATLHVHSDQKPPHDGALGSQQNLVRMKEALRASTMDVTVVLPSGLEKRSVLNGSHAMMDLLVELCLQNHLNPSHHALEIRSSETQQPLSFKPNTLIGTLNVHTVFLKEKVPEEKVKPGPPKVPEKSVRLVVNYLRTQKAVVRVSPEVPLQNILPVICAKCEVSPEHVVLLRDNIAGEELELSKSLNELGIKELYAWDNRRETFRKSSLGNDETDKEKKKFLGFFKVNKRSNSKGCLTTPNSPSMHSRSLTLGPSLSLGSISGVSVKSEMKKRRAPPPPGSGPPVQDKASEKVSLGSQIDLQKKKRRAPAPPPPQPPPPSPLIPNRTEDKEENRKSTMVSLPLGSGSHCSPDGAPQVLSEAEETVSVGSCFASEDTTEDSGVMSSPSDIVSLDSQQDSMKYKDKWATDQEDCSDQDLAGTPDLGPQKSPLWEKNGSENSHLRTEKAVTASNDEEDLLIAGEFRKTLAELDEDLEEMEDSYETDTSSLTSSIHGASNHCPQDAMIPHGDTDAIPVTFIGEVSDDPVDSGLFSNRNNNAGSFDSEGVASRRDSLAPLQAEHSQPHEKAREEVPALHPASHDVGKGIRVALSNISKDGNLMETAPRVTSFASNLHTDNLNAKVKDKVYGCADGERTQATERVNSQPVNEKDSNDKNAALAPTSWHQRGQNPGKSYRLKHGLTTYKIIPPKSEMRCYDRDVSLSTGAIKIDELGNLVSPHATGIRIISLSSSVPEAESQPIGKVREFWRCNSVEKHLGRPSESSARGPPSTPVPTQTQNPESRLQADPKPISPQQKSAHHEGRNPLGEGRNQPPTMGMGHVRVPAAHTTEVTFLKPQRRTSSQYVASAIAKRIGAPKVHADVVRPHGYAEKGYAGKAPVLAAPPVTVKDDRTSSPHSETQGWKDGAQWPCVTPPNNHGEDLAVGAPPRGEVIGPHRKLSTQDRPAAIHRSSCFSLVQSSQRDRVSVGQSCGFSGKQSTSSQEASSASEPRRAPDGTDPPPPHTSDTQACSRELVNGSVRAPGHGEPSHPPGGSGTESHILLEREEKPSVFSTDGNETDSIWPPSIFGPKKKFKPVVQRPVPKDTSLHSALMEAIHSAGGKDRLRKTAEHTGEGRPAKLSYTEAEGERSALLAAIRGHSGTCSLRKVASSASEELQSFRDAALSAQGSESPLLEDLGLLSPPAIPPPPPPPSQALSAPRTASRFSTGTLSNTADARQALMDAIRSGTGAARLRKVPLLV", "soluble on expression in E. coli": "soluble"},
      {"sequence": "MGSDKIHHHHHHMERRRWLGAMAGVCPSCGRTLEGSGVRRLCPDCYVERYGVARIPEAVKFVYCRDCGAYRYQGGWNEGLESVEDTLREYLHMVLTVRMKPTEAVEEAWVESIELVQAFAGPGVYTALVTVAGRAGGQSLVERKIITVEASQALCPRCTARSTGRGFEAEVKVRSTAGSLGRDVKTGIARVLRRSRSIAGFVVKVDENREGLDIYLTDQTAARMLAGKLRSEFSAEVKESYKLVGRQPSGRRKGRLTISVRIPEYRPGELISVEGRPHLYLGRSGRGLVTIDLDTGRERVVDTSRTGVLAGVKRYEPGARLRRMMLLSSSGDSMVFLDVDKGMQEVVDAPRGSVRPFVESMEPGRVYEVFIHGGRIYVLRETG", "soluble on expression in E. coli": "not soluble"},
      {"sequence": "MSLTPTFKDKIARAPKAELHIHIEGSLEPELIFALAQRNGVKLAYDSIDALRAAYAFTDLQSFLDIYYAGASVLLTEQDFYDMTAAYCERALADNVVHTELFFDPQTHTERGVSIETVVAGIERALADAEQRGLSSKLILCFLRHLSEEDALATFESALPLFERYRHRLIGVGLDSSELGHPPTKFARVFEKARALGLKLVAHAGEEGPPAYIYEALDVLKVDRIDHGVRSIEDEALVERLAKTRTALTVCPLSNLKLCVFDDMAKHTLKALLDRGVAVTINSDDPAYFGGYVNENYFATAEGLQLTDAEVHAVIRNGFEASFIEPAQRDALYARLDAYWQAAEGHHHHHH", "soluble on expression in E. coli": "soluble"},
      {"sequence": "MRRHAIILAAGKGTRMKSKKYKVLHEVAGKPMVEHVLESVKGSGVDQVVTIVGHGAESVKGHLGERSLYSFQEEQLGTAHAVQMAKSHLEDKEGTTIVVCGDTPLITKETLETLIAHHEDANAQATVLSASIQQPYGYGRIVRNASGRLERIVEEKDATQAEKDINEISSGIFAFNNKTLFEKLTQVKNDNAQGEYYLPDVLSLILNDGGIVEVYRTNDVEEIMGVNDRVMLSQAEKAMQRRTNHYHMLNGVTIIDPDSTYIGPDVTIGSDTVIEPGVRINGRTEIGEDVVIGQYSEINNSTIENGACIQQSVVNDASVGANTKVGPFAQLRPGAQLGADVKVGNFVEIKKADLKDGAKVSHLSYIGDAVIGERTNIGCGTITVNYDGENKFKTIVGKDSFVGCNVNLVAPVTIGDDVLVAAGSTITDDVPNDSLAVARARQTTKEGYRK", "soluble on expression in E. coli": "not soluble"}
    ]}
  ]
}
